Experiment [1] has as its target biotinylated eboIZN39IQ. The experiment can be described thus: SPR (ProteOn XPR36), eboC24 flowed over biotin-eboIZN39IQ, pH 5.8.
The target of experiment [2] is biotinylated eboIZN39IQ.

What is called Kd is a measure of binding affinity in units of concentration. A higher Kd goes with weaker binding.

Read-outs that look alike come from different tables or passages of the source.

B1: eboC24 (peptide)
peptide: IEPHDWTKNITDKIDQIIHDFVDK
modifications: not checked
B1: the figures for the dissociation constant Kd in the experiment with biotinylated eboIZN39IQ [1] and in the experiment with biotinylated eboIZN39IQ [2] were 300 nM and 310 nM, respectively.

For the origin of these results see US20170247418A1.
